The source of these data is patent US20250355001A1 (GTINVENT, published 2025).

What is called Kd is the free concentration of one partner at which half of the binding sites on the other are occupied at equilibrium, for simple one-to-one binding. In general, koff refers to the first-order rate constant of dissociation. A high value points to a short-lived complex. For orientation: kon means the second-order rate constant of association.

Changes are numbered by the printed parent chain.

Assay [1] concerns the target T1, full length human tau protein 2N4R (hT40) (human, UniProt P10636 1-758).
T1 construct: recombinant; also called T441
Briefly: SPR, hT40 immobilised, mAb analyte. How it is done: (§1) For anti-tau mAb SPR measurements, htau40 was conjugated to the surface of a CM5 sensor chip using amine coupling as explained previously. Briefly, 2 μg/mL htau40 in 10 mM Sodium acetate buffer (pH 4.0) was passed over the activated chip surface (EDC/NHS) in flow cell 2 for a period for 45 s followed by blocking with 1 M ethanolamine-HCl PH 8.5. Flow cell 1 was set up as reference control and blocked simultaneously. Final immobilisation level of htau40 (Rmax) was approximately 250 RU. […] The mAb was added for a 120 s association period and 600 s dissociation period followed by a regeneration cycle of 30 s injection of glycine buffer pH 1.5 in between each cycle. Binding responses were analysed in Biacore X100 evaluation software and data fitted to a 1:1 binding model to obtain kinetic and affinity characterisation.
For anti-tau mAb SPR measurements (Biacore X100™) and epitope mapping, the same methodologies described above (see Example 16) were followed.
A general note: SPR reads the build-up and loss of mass on a sensor chip optically.

The target of assay [2] is T1, full length human tau protein 2N4R …. Put plainly: Biacore. The procedure: (§2) The capture antibody was diluted 1/100 in 10 mM Sodium acetate buffer pH 5.0 and passed over the activated chip surface for a period of at least 420 s. Final ligand immobilisation levels over 12,000 RU were deemed to be satisfactory.
(§3) The scAb to be tested was added only to flow cell 2 so that flow cell 1 could act as a control to subtract any interaction with the analyte and the chip surface. […] The multi-cycle protocol was as follows-Three start-up cycles composed of an initial capture, to the desired level, of the scAb to be tested was performed followed by a 30 s injection of glycine buffer pH 2.0 after each cycle to regenerate the chip surface. […] The target was added for a 120 s association period and 420 s dissociation period followed by another regeneration, 30 s injection of glycine buffer pH 2.0 in between each cycle.
(§4) The single cycle kinetics protocol was similar and utilised the same level of scAb capture. […] In single cycle kinetics the regeneration step was performed only after the final analyte concentration was added. Binding responses were analysed in Biacore X100 evaluation software and data fitted to a 1:1 binding model to obtain kinetic and affinity characterisation.

Assay [3] shares this target. Put plainly: SPR, summary table. How it is done:
as §2, §3, §4

For assay [4] the target is unchanged. Put plainly: SPR, scAb captured, tau analyte. How it is done:
as §2, §3, §4

For assay [5] the target is unchanged. Briefly: sandwich ELISA, S1D12 mAb capture, scAb detection. How it is done:
Full length tau (hT40), at 1 μg/ml starting concentration was added to designated wells and double diluted across rest of the plates and left to incubate at R/T for 1 h. A series of detection scAbs with varying epitope recognition properties were added at 10 μg/ml to designated wells (FIG. 22). For colourimetric detection HRP conjugated anti-HuCk secondary antibody was used and the resulting immunoreaction was developed and absorbance at 450 nm measured as described previously. Cut-off point for a positive binding event was an absorbance value of 0.3 following background subtraction. In order to enhance the assay sensitivity, a chemiluminescent detection method was adopted where 50 μL SuperSignal ELISA Femto Substrate (Thermo Scientific) was added to each well following incubation with anti-HuCK HRP antibody and subsequent washing. The luminescence was read using Clariostar Plus microplate reader. A further modification to this protocol was done where various detection scAbs were directly conjugated with HRP and detected using chemiluminescent protocol as before.
For orientation: ELISA stands for enzyme-linked immunosorbent assay.

The target is the same in assay [6]. Briefly: SPR, hT40 immobilised, mAb analyte. How it is done: as §1
The source holds these as a separate data set.

In the next assay the target is dGA (tau 297-390) (human, UniProt P10636 614-707). Briefly: SPR, scAb captured, tau analyte. The procedure: as §2, §3, §4
Chain of dGA (tau 297-390) (P10636 614-707 limits assumed): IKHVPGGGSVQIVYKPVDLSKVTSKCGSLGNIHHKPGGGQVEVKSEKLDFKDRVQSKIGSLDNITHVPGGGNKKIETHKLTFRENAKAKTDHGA

T1 sequence (P10636 other isoform, or with tags, fused parts or gaps limits assumed): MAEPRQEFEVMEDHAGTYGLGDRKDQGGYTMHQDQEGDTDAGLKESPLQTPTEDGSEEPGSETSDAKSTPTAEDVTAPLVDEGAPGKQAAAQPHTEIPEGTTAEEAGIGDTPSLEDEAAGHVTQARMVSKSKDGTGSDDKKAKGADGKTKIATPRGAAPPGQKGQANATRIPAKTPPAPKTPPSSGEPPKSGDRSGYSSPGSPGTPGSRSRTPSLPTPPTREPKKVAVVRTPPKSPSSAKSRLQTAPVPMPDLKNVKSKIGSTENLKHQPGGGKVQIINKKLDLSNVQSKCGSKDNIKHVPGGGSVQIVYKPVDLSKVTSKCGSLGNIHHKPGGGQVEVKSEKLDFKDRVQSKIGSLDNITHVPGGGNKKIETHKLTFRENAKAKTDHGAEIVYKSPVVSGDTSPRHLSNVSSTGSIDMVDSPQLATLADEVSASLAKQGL

B1: 3aH6 mAb (antibody)
heavy: QVQLQESGPSLVKPSQTLSLTCTVSGFSLSSNGVGWVRQAPGKVPEWLGDISSVGKKYANPALKSRLSFTRDTSKSQVSLSLSSVTTEDTAVYYCVKCRDGGVTYGYDIDYWGPGLLVTASSAKTTAPSVYPLAPVCGDTTGSSVTLGCLVKGYFPEPVTLTWNSGSLSSGVHTFPAVLQSDLYTLSSSVTVTSSTWPSQSITCNVAHPASSTKVDKKIEPRGPTIKPCPPCKCPAPNLLGGPSVFIFPPKIKDVLMISLSPIVTCVVVDVSEDDPDVQISWFVNNVEVHTAQTQTHREDYNSTLRVVSALPIQHQDWMSGKEFKCKVNNKDLPAPIERTISKPKGSVRAPQVYVLPPPEEEMTKKQVTLTCMVTDFMPEDIYVEWTNNGKTELNYKNTEPVLDSDGSYFMYSKLRVEKKNWVERNSYSCSVVHEGLHNHHTTKSFSRTPGK
light: QAVVTQPSSVSGSLGQSVSITCSGSSGNVGYGDYVSWFQQFHGSAPKLLIYGATNLASGVPARFSGSRSGNTATLTISSLHAEDEADYYCASYDSSSGGVFGSGTRLTVLGGQPKSSPSVTLFPPSSEELETNKATLVCTITDFYPGVVTVDWKVDGTPVTQGMETTQPSKQSNNKYMASSYLTLTARAWERHSSYSCQVTHEGHTVEKSLSRADCS
As for B1, in assay [1], the Kd was determined as 0.049 nM, the koff was determined as 0.000152 s⁻¹ and the kon is 3.13e+06 M⁻¹ s⁻¹.

B2: CC7 scAb (scFv, not shown: small tags and cut ends)
scFv: QVQLQESGPSLVKPSQTLSLTCTVSGFSLTSNAVIWVRQAPGKAPEWVALIDVDGDAAYDPALKSRLSITRDTSKSQVSLSLRSVTTEDTAVYYCARDYGSWGYVSDIDYWGPGLLVTVSSEGKSSGASGESKVDDRVVRTQPSSVSGSLGQRVSITCSGSYITGSSVGWFQQVPGSGLKTVIYDNNDRPSGVPDRFSGSKSGDTATLTISSLQAEDEADYYCASYDTSNIGLFGSGTRLTVLG
notes: scAb
Molecule B2 had a Kd in assay [2] of 1.2 nM. Besides, in assay [3], the Kd amounted to 1.23 nM. In assay [4], this molecule returned a Kd of 1.23 nM, a koff of 0.000366 s⁻¹ and a kon of 296000 M⁻¹ s⁻¹. Besides, in assay [5], the LoD chemiluminescence detection amounted to 3.33 ng/mL and the LoD colourimetric detection worked out at 6 ng/mL.

B3: 412E10 mAb (antibody, mouse IgG2a, V domains shown)
VH: QVQLQESGPSLVKPSQTLSLTCTVSGFSVISDSVAWVRQAPGKVPEWLGASGSSGNKYYNPALKSRLSITRDTSKSQVSLSLSSVTTEDTAVYYCARGIIAGVDVWGRGLLVTVSS
VL: QAVLTQPSSVSGSLGQRVSITCSGSSSNVGYGNYVGWYQQVPGSAPKLLIYGTAIRASGVPDRFSGSRSGDTATLTITSLQAEDEADYYCASYQSNYAFFGSGTRLTVLG
notes: sheep-mouse IgG2a chimeric mAb
In assay [6], B3 had a Kd of 9 nM, a koff of 0.015 s⁻¹ and a kon of 1.66e+06 M⁻¹ s⁻¹.

B4: MD9 mAb (antibody, V domains shown)
VH: QVRLQESGPSLVKSSQTLSLTCTVSGFSLTRESIAWVRQAPGKVPEWLGGVGIDGTSYYSPALKSRLSITRDTSKSQASLSLSSVATEDTAMYYCARNYIDFEYWGPGLLVTVSS
VL: QAVLTQLSSVSGSLGQRISITCSGSSSNVGIYDVSWFQQLPGSGLRTVIYGTNNRPSGVPDRFSGSRSGNTATLTISSLQSEDEAIYYCAAGDSSTIAVFGSGTRLTVLG
In assay [1], B4 gave a Kd of 22 nM, a koff of 0.00146 s⁻¹ and a kon of 66200 M⁻¹ s⁻¹.

B5: S1E12 scAb (scFv, not shown: small tags and cut ends)
scFv: QVQLQESGPSLVKPSQTLSLTCTVSGFSLGSNSVGWVRQAPGKAPEWVAGIDTDGEEGYNPALNSRLSITRDTSKSQVSLSLSSVTSEDTAVYYCGRSYRADGLAYGYVQAIDYWGPGLLVTVSSEGKSSGASGESKVDDRVVRTQPSSVSGSLGQRVSITCSGSFIGISSVGWFQQLPGSGLRTIIVASDGRPSGVPDRFSMSKSGNTATLTISSLQAEDEADYFCGSSDRTQYTGVFGSGTRLTVLG
notes: scAb
B5: the Kd in assay [3] was 0.829 nM. For the same molecule, in assay [4], the Kd is 0.829 nM, the koff was 0.000319 s⁻¹ and the kon was determined as 385000 M⁻¹ s⁻¹. Also, in the assay with dGA (tau 297-390), binding was put at a Kd of 0.543 nM, the koff is 0.00163 s⁻¹ and the kon stood at 2.99e+06 M⁻¹ s⁻¹.

B6: 3bG4 mAb (antibody, mouse IgG2a, V domains shown)
VH: QVQLQESGPSLVKPSQTLSLTCTISGFSLISNGVGWVRQAPGKVPEWVGDIASSGKAYSNPALKSRLSITRDTSKSQVSLSLRSVTTEDTAVYYCVRCRDGGVTYGYDIDYWGPGLLVTVSS
VL: QAVLTQPSSVSKSLGQSVSITCSGSTSNVGSGNDVSWFQQVPGSAPKLLFYGATNRASGVPDRFSGSRSGNTATLTITSLQAEDEADYYCGSYDSNSGGIFGSGTRLTVLG
notes: as for B3
As for B6, in assay [1], binding was put at a Kd of 0.065 nM, the koff turned out to be 0.000296 s⁻¹ and the kon came to 4.54e+06 M⁻¹ s⁻¹.

B7: 3aG3 mAb (antibody, V domains shown)
VH: B6 VH with I24V, I30S, A52S, S59A, S74A, S76T, S79F, R83S, T104S
VL: QAVLTQPPSVSGSPGQRVSITCSGSSSNIGGGNYLSWFQQVPGSAPKLLIYGATSRASGVPDRFSGSRSGNTATLTISSLQAEDEADYYCASFDTSSGGIFGAGTRLTVLG
In assay [1], B7 gave a Kd of 0.31 nM, a koff of 0.00475 s⁻¹ and a kon of 1.53e+07 M⁻¹ s⁻¹.

B8: CE3 mAb (antibody, mouse IgG2a, V domains shown)
VH: QVRLQESGPSLVKPSQTLSVTCTVSGFSLISNAVGWVRQAPGKVPESLAGCSSDGKCYYNSALKSRLDITRDTSKNQISLSLSSVTTDDAAVYYCTRGYYPVYGYDYLGTIDYWGPGLLVTVSS
VL: QAVLTQPSSVSGSLGQRVSITCSGSSSNVGRNDVAWFQQLPGSGLRTIIYGTTSRPSGIPDRFSGSKSGVTATLTIDSLQAEDEADYFCASGDSSAINDIFGSGTRLTVLG
notes: as for B3
In assay [6], B8 showed a Kd of 16.7 nM, a koff of 0.00172 s⁻¹ and a kon of 103000 M⁻¹ s⁻¹.

B9: CE2 mAb (antibody, mouse IgG2a, V domains shown)
VH: QVQLQESGPSLVKPSQTLSLTCTVSGFSLTNYPVGWVRQAPGKALEWIGNIENDGSANYASALKSRLSITRDTSKNQVSLSLSSATTEDTAVYYCGREFGGSDGYTYFVDIDYWGPGLLVTVSS
VL: QAVLTQPSSVSKSLGQSVSITCSGSSSNVGYGNYVSWFQQVPGSAPKILIYGATSRASGVPDRFSGSRSGNTATLTITSLQAEDEADYYCASYDGSSSGVFGSGTRLTVLG
notes: as for B3
In assay [6], B9 gave a Kd of 11 nM, a koff of 0.00522 s⁻¹ and a kon of 458000 M⁻¹ s⁻¹.

B10: E1B8 mAb (antibody, V domains shown)
VH: B9 VH
VL: B9 VL
As for B10, in assay [1], the Kd is 4.22 nM, the koff was 0.00137 s⁻¹ and the kon came to 324000 M⁻¹ s⁻¹.

B11: 3bD11 mAb (antibody)
chain: RVRLQGSGPSLVKPSQTLSLTCTVSGFSFDSYYVGWVRQAPGKALEWLGNIYSTGRAFYNPALKSRLSITRDTSKSQVSLSVSSVTIEDTALYYCVRGSYYHGGGNGMVDFFDYWSPGLLVTVSSEGKSSGASGESKVDDQVVRTQPSSVSGSLGQRVSITCSGSSSNVGYGNYVGWFQQVPGSAPKLLIYAATSRASGVPDRFSGSRSGNTATLTIDSLQAEDEADYYCSSYQRGNTGVFGSGTRLTVLG
With B11, in assay [1], the Kd turned out to be 1.49 nM, the koff worked out at 0.00398 s⁻¹ and the kon was determined as 2.67e+06 M⁻¹ s⁻¹.
